Article PMC9035363

Legend:
[1] = target: RBD N440D on yeast (SARS-CoV-2) (UniProt P0DTC2)
[2] = target: RBD-Fc L452R (SARS-CoV-2) (UniProt P0DTC2)
[3] = target: RBD-Fc K417T (SARS-CoV-2) (UniProt P0DTC2)
[4] = target: RBD-Fc K417N (SARS-CoV-2) (UniProt P0DTC2)
[5] = target: SARS-CoV-2 S D614G on CHO cells (SARS-CoV-2) (UniProt P0DTC2)
[6] = target: SARS-CoV-2 S N501Y on CHO cells (SARS-CoV-2) (UniProt P0DTC2)
[7] = target: SARS-CoV-2 S N439K on CHO cells (SARS-CoV-2) (UniProt P0DTC2)
[8] = target: SARS-CoV-2 S S477N on CHO cells (SARS-CoV-2) (UniProt P0DTC2)
[9] = target: SARS-CoV-2 S S494P on CHO cells (SARS-CoV-2) (UniProt P0DTC2)
[10] = target: RBD-Fc L452R (SARS-CoV-2) (UniProt P0DTC2); remark: listed apart in the source
[11] = target: RBD-Fc E484K (SARS-CoV-2) (UniProt P0DTC2)
[12] = target: SARS-CoV-2 S S494P on CHO cells (SARS-CoV-2) (UniProt P0DTC2); remark: listed apart in the source
[13] = target: RBD-Fc Y453F (SARS-CoV-2) (UniProt P0DTC2)
[14] = target: RBD-Fc D420N (SARS-CoV-2) (UniProt P0DTC2)
[15] = target: RBD-Fc K417E (SARS-CoV-2) (UniProt P0DTC2)
[16] = target: SARS-CoV-2 S D614G on CHO cells (SARS-CoV-2) (UniProt P0DTC2); remark: listed apart in the source
[17] = target: RBD-Fc L452R (SARS-CoV-2) (UniProt P0DTC2); test: SPR
[18] = target: RBD-Fc K417T (SARS-CoV-2) (UniProt P0DTC2); test: SPR
[19] = target: RBD-Fc K417N (SARS-CoV-2) (UniProt P0DTC2); test: SPR
[20] = target: RBD-Fc F486V (SARS-CoV-2) (UniProt P0DTC2); test: SPR
[21] = target: RBD-Fc F490S (SARS-CoV-2) (UniProt P0DTC2); test: SPR
[22] = target: RBD-Fc S494P (SARS-CoV-2) (UniProt P0DTC2); test: SPR
[23] = target: RBD-Fc E484Q (SARS-CoV-2) (UniProt P0DTC2); test: SPR
[24] = target: RBD-Fc S477N (SARS-CoV-2) (UniProt P0DTC2); test: SPR
[25] = target: RBD-Fc E484K (SARS-CoV-2) (UniProt P0DTC2); test: SPR
[26] = target: RBD-Fc N439K (SARS-CoV-2) (UniProt P0DTC2); test: SPR
[27] = target: RBD-Fc V483A (SARS-CoV-2) (UniProt P0DTC2); test: SPR
[28] = target: RBD-Fc Y453F (SARS-CoV-2) (UniProt P0DTC2); test: SPR
[29] = target: RBD-Fc G476S (SARS-CoV-2) (UniProt P0DTC2); test: SPR
[30] = target: RBD-Fc D420N (SARS-CoV-2) (UniProt P0DTC2); test: SPR
[31] = target: RBD-Fc E484D (SARS-CoV-2) (UniProt P0DTC2); test: SPR
[32] = target: RBD-Fc N460T (SARS-CoV-2) (UniProt P0DTC2); test: SPR
[33] = target: RBD-Fc N501Y (SARS-CoV-2) (UniProt P0DTC2); test: SPR
[34] = target: RBD-Fc F486I (SARS-CoV-2) (UniProt P0DTC2); test: SPR
[35] = target: RBD-Fc N460K (SARS-CoV-2) (UniProt P0DTC2); test: SPR
[36] = target: RBD-Fc N460S (SARS-CoV-2) (UniProt P0DTC2); test: SPR
[37] = target: RBD-Fc Y489H (SARS-CoV-2) (UniProt P0DTC2); test: SPR
[38] = target: RBD-Fc K417E (SARS-CoV-2) (UniProt P0DTC2); test: SPR

For “LY-CoV1404 (bebtelovimab), full-length human IgG1 mAb (antibody)”, the pseudovirus (whole S) susceptibility IC50 [1] was 6 ng/mL, the VSV pseudovirus (whole S) neutralisation IC50 [2] was < 1 ng/mL and the lentiviral pseudovirus (whole S) neutralisation IC90 [2] was 10 ng/mL. It also gave a VSV pseudovirus (whole S) neutralisation IC50 [3] of 2 ng/mL, a VSV pseudovirus (whole S) neutralisation IC50 [4] of 2 ng/mL and a lentiviral pseudovirus neutralisation IC50 [5] of 3 ng/mL. The lentiviral pseudovirus neutralisation IC90 [5] was 10 ng/mL, the VSV pseudovirus neutralisation IC50 [6] was 2 ng/mL and the VSV pseudovirus neutralisation IC90 [6] was 7 ng/mL. It also gave a VSV pseudovirus neutralisation IC50 [7] of 2 ng/mL, a VSV pseudovirus neutralisation IC90 [7] of 7 ng/mL and a VSV pseudovirus neutralisation IC50 [8] of 5 ng/mL. The VSV pseudovirus neutralisation IC90 [8] was 26 ng/mL, the VSV pseudovirus neutralisation IC50 [9] was 2 ng/mL and the pseudovirus (whole S) susceptibility IC50 [10] was 2 ng/mL. It also gave a pseudovirus (whole S) susceptibility IC50 [11] of 2 ng/mL, a pseudovirus susceptibility IC50 [12] of 1 ng/mL and a pseudovirus (whole S) susceptibility IC50 [13] of 2 ng/mL. For the same substance, the pseudovirus (whole S) susceptibility IC50 [14] was 2 ng/mL, the pseudovirus (whole S) susceptibility IC50 [15] was 4 ng/mL and the pseudovirus neutralisation (second system of Table 3D), IC50 [16] was 3 ng/mL.
LY-CoV1404 Fab (papain digestion) was tested, and the Kd [17] was 4.94 nM, the Kd [18] was 2.54 nM and the Kd [19] was 3.08 nM. It also gave a Kd [20] of 2.82 nM, a Kd [21] of 2.99 nM and a Kd [22] of 3.46 nM. For the same substance, the Kd [23] was 3.74 nM, the Kd [24] was 3.45 nM and the Kd [25] was 3.19 nM. It also gave a Kd [26] of 5.05 nM, a Kd [27] of 3.29 nM and a Kd [28] of 3.28 nM. The Kd [29] was 4.35 nM, the Kd [30] was 4.09 nM and the Kd [31] was 3.37 nM. It also gave a Kd [32] of 3.52 nM, a Kd [33] of 2.9 nM and a Kd [34] of 2.69 nM. For the same substance, the Kd [35] was 3.4 nM, the Kd [36] was 2.6 nM and the Kd [37] was 3.06 nM. The Kd [38] was 2.59 nM.
